Assay results reported in the supplement of paper PMC12042874.
± gives the uncertainty stated by the source.

Assay: amyloid nucleation score (Sup35N fusion, yeast selection) (log enrichment); library NNK2; higher = more nucleation; inactive = no reads after selection
Summary of the method: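 Output and input plasmid inserts were sequenced by Illumina after psi-negative yeast carrying Sup35N fused to peptides of 20 random codons had been induced 24 hours with 100 μM copper sulfate and grown 7 days at 30°C on medium lacking adenine and uracil. The nucleation score is the DiMSum log enrichment of output over input reads, centred on the mode score of non-aggregating sequences. Sequences with under 100 input reads were excluded.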

Substance | amyloid nucleation score
NWLSMWLWFVCMSLVCMVFR | 1.77 ± 0.16
NWMHC | 1.39 ± 0.42
NWNVRRYVTPAFEFRGCV | 0.833 ± 0.74
NWPNPVSLMSRIDFRMV | -0.131 ± 0.31
NWSHELQIQLCAMAYREWSE | 5.777 ± 0.038
NWSNLEWWL | 0.054 ± 0.77
NWVSIEHNYIFVLRYPENAS | 8.465 ± 0.042
NYAPGFTWFSMTNKKDFNVS | inactive
NYCRTIFYYCAMIYFPCLAE | 1.77 ± 0.22
NYDSSDLTLFDVSRRPLLER | inactive
NYFGKLLWLSLHDTCIVTF | inactive
NYVCWISGTTGLVM | -0.319 ± 0.76
NYWWYVPW | 0.527 ± 0.51
NYYCFQIRMLENNEEVFGIG | inactive
PAERSCGQCFQEFSWY | 0.102 ± 1.1
PATVVILS | 1.23 ± 0.45
PCLMVIRRWMITVFYQKLSG | 0.181 ± 0.2
PCLRKNRYRLWLYTMVIQTQ | 0.806 ± 0.32
PCRVYHLCNYKLAWRKGGWL | 0.927 ± 0.2
PCSRPTLLPCHCGTTTTSHI | 2.4 ± 0.1
PCVLKLRSSSKSISCSWGVS | 3.85 ± 0.074
PDFLAVGHVSTFVHFTVETG | 1.16 ± 0.38

Substance | amyloid nucleation score
PDLCEFLMLYMMITLNFCIN | -0.214 ± 1
PEKTFICCLAVRDMQNRGVS | -0.032 ± 1.1
PFILLGTPELVTNGEHAERG | 0.647 ± 0.66
PFPSPSDSGTVAA | 0.737 ± 0.54
PFQVFILHYA | 6.356 ± 0.042
PGHSWMMSDDPDRYMNNLTV | -0.053 ± 0.79
PGTFFSLSKWWFIDGVTEPG | 0.178 ± 0.77
PGYNSFLWWAAME | -0.271 ± 0.34
PHDGRNWFSVSDLMIGSDVG | 0.505 ± 0.36
PHLEGVSCVVVKHQLRS | 0.82 ± 0.17
PHSLVLSGWHNLDAFFNATL | inactive
PHVRTFRRFRWMY | -0.251 ± 0.39
PIDKSVAVLDRREMSDQRIN | -0.753 ± 0.34
PILGGEFDAGWRNFLFWKGW | 0.448 ± 0.66
PIYCINRFDNWYLL | 5.94 ± 0.041
PKGNSRYMRLIFDAQLSYTG | 1.25 ± 0.13
PKIMKFGKCYTP | 0.065 ± 0.28
PKPLVGMLCCHSMTRGKVTL | 3.28 ± 0.07
PKSHFSRFGYYKVFQRSGRS | -0.92 ± 1.1
PKSYWLSISRLKPVSQYYLR | 1.21 ± 0.24
PLDGEIRREHVLAYEE | -0.454 ± 0.48
PLHHSLRTYVALGLR | 0.306 ± 0.65

Substance | amyloid nucleation score
PLHRWLQDR | -0.037 ± 0.79
PLLFTWAVLINALWVKSTPG | -0.19 ± 1
PLVAMGMIINNI | -1.74 ± 0.48
PLYEELVWGRFRLMVYTGRF | -0.193 ± 0.76
PMFCSLVLRI | -0.383 ± 0.41
PMRMKFCQWLFHPP | -0.983 ± 0.61
PNGFVFSCNRSPMAGMGIDE | -2.14 ± 1.1
PNMGLVNCRRNFCCRLWRIC | -0.469 ± 1.1
PNNINRFRRSYFY | -1.14 ± 0.49
PNSSNPNPMRLVFRSMSFRL | 0.269 ± 0.64
PNVCKLYMWQFGTLNQAPQR | 8.399 ± 0.065
PPVMFLRWCVQAGSPWTNHC | -0.105 ± 1.1
PQVNPYLNLCRLTQDMLLHR | 0.832 ± 0.15
PRKDLPEYSLYSDLEPLVCN | -1.25 ± 0.62
PRLNISLVMCNMFVGRGRFH | 8.705 ± 0.039
PRRNTADCIGCTDRTGRRRC | 0.6 ± 0.39
PRVRSAVQSLRGVKYCLGRR | -0.531 ± 0.63
PSCFQDYKWQMWQLTRAWNF | -0.758 ± 0.55
PSGFRSLLFEVHHFSRWAYD | 0.691 ± 0.15
PSKPC | -1.72 ± 0.75
PSLTVPGVSRYCFS | -1.29 ± 0.75
PSLVRRNTSLCL | 0.325 ± 0.41

Substance | amyloid nucleation score
PSVFEGRK | -0.843 ± 0.63
PSVKIRFQVAYWLYRSLMMS | 0.877 ± 0.55
PTRKSIYSLPRARSLIPQNT | -1.26 ± 1.1
PTSNPSQRSRQRHQ | 0.619 ± 0.81
PTSWFRSNMKWFYPVSQPHW | -0.434 ± 0.64
PTVSLKDISGWIKPVRYLNG | 0.26 ± 0.25
PVIQYVTSG | -0.257 ± 0.5
PVLCVYFSIYN | 8.151 ± 0.054
PVLTYFKLQLMM | 2.23 ± 0.066
PVSGGVNFNNRLLITWRAFW | 0.885 ± 0.58
PWYLRVSEHHKPWEPENWG | 0.552 ± 0.32
PYWFRFLSYVQMLEYFCAPV | -0.764 ± 0.36
PYYKAGGYMVMVHLSRLFLL | -0.882 ± 0.47
QCAVDSPYDIRKLRR | -0.086 ± 0.39
QCGGIGFLILLNVCGDGLWI | 4.37 ± 0.092
QCVKLNTNVLCTVSDYNARG | 1.2 ± 0.11
QCYIVCFICSRYTNQVKLLY | 1.38 ± 0.14
QDKYTSEECESRFVTYETVV | 0.695 ± 0.57
QEVSIKSFLRKYLLCYTMML | -1.05 ± 0.44
